From patent US9259432B1, “Composition and methods for targeted delivery of a therapeutic compound to the brain or spinal cord of a subject for treatment of neurodegenerative diseases” (Parminder J. S. Vig, priority 2011, dated 2016)

Columns and labels:
[1] = IgG levels in plasma by ELISA; type: in vivo, mice; conditions: 100 mg/kg, treated multiple times, no heat; samples diluted 1:50,000
Protocol: IgG levels in plasma of mice treated withof SynB1-ELP-GGC (100 mg/kg) and SynB1-ELP-TRTK (100 mg/kg) were obtained. Mice were treated multiple times without induction of hyperthermia. IgG levels were measured using ELISA. Samples were diluted 1:50,000 and compared against a standard curve generated using a mouse IgG standard.

S100B = molecular target: T1, S100B (Homo sapiens, UniProt P04271); test: Tryptophan fluorescence quenching binding studies
T1 construct: purchased Sigma-Aldrich
T1 sequence (P04271 2-92 limits assumed): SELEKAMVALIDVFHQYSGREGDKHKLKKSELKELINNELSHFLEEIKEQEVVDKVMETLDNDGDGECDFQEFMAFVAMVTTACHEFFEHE
Protocol: The tryptophan fluorescence of 5.0 μM Synb1-ELP-TRTK, 5.0 μM Synb1-ELP-GGC and 5.0 μM TRTK12 were measured using an Aminco Bowman Series 2 fluorescent spectrophotometer with and Excitation wavelength of 295 nm and an Emission wavelength of 350 nm in 25 mM TrisHCL and 0.1 mM CaCl2 at 12° C. (to avoid aggregation of ELP) or in a solution of containing 25 mM TrisHCL, 0.1 mM CaCl2 and 1 mM EGTA at 12° C. S100B was titrated from 100 nM up to 3.0 μM into the various peptide solutions and changes in tryptophan fluorescence were recorded into an Excel file and graphs produced. A Fluorescence % was plotted against free S100B concentration using GraphPad Prism software. A Fluorescence % was calculated as follows: [(Maximum fluorescence−Observed fluorescence)/(Maximum fluorescence−Minimum Fluorescence)]×100%. Where the maximum fluorescence is the fluorescence of 5.0 μM Synb1-ELP-TRTK or 5.0 μM TRTK12 before titration of S100B and the minimum fluorescence is the fluorescence of 5.0 μM Synb1-ELP-TRTK or 5.0 μM TRTK12 fully saturated with bound S100B. […]
Alterations in the binding affinity of a peptide due to its fusion to ELP have never been studied previously. […] Fluorescent spectroscopy is a sensitive tool used to monitor changes in the local environment of tryptophan residues that occur during a protein-ligand binding event; furthermore, changes in tryptophan fluorescence can be used to calculate binding affinity (Weljie and Vogel, 2000, Bocedi et al., 2004). Previous work has shown that S100B binding reduces tryptophan fluorescence of TRTK12 and like peptides (Ivanenkov et al., 1995). The tryptophan fluorescence of 5.0 μM Synb1-ELP-TRTK and 5.0 μM Synb1-ELP-GGC were measured using a fluorescent spectrophotometer with an Excitation wavelength of 295 nm and an Emission wavelength of 350 nm in 25 mM TrisHCL and 0.1 mM CaCl2 at 12° C. At 295 nm, tryptophan emission spectrum is dominant over the weaker tyrosine and phenylalanine fluorescence (Vivian and Callis, 2001). […] W755 has very little fluorescence at 350 nm which may be due to the 150 neighboring VPGXG repeats of ELP (FIG. 12A). […]

impact on S100B binding affinity compared to the TRTK12 peptide alone (S100B): 2 fold
Kd (S100B; 5.0 μM peptide, 25 mM TrisHCL, 0.1 mM CaCl2, 12° C.): 518 ± 80 nM
effect of S100B titration on tryptophan fluorescence at 350 nm with calcium depleted (S100B; 25 mM TrisHCL, 0.1 mM CaCl2 and 1 mM EGTA): no effect
Substance: Synb1-ELP-TRTK: thermally responsive S100B inhibitory polypeptide: Synb1 cell penetrating peptide, elastin-like polypeptide (ELP) and TRTK12 peptide fused
IgG level in plasma, OD Value [1]: 0.2552
